# Experiments:
# Experiment in all cases: quartz crystal microbalance (QCM); purified N protein injected first onto the coated quartz crystal, then GST, then Grb2-GST; PBS pH 7.4, flow 60 μl/min; Tris-HCl pH 8.0 between injections; binding ratio = amplitude difference of Grb2-GST before and after binding over the amplitude of N protein
# [1] = molecular target: PEDV-N (His-fused N protein of Alphacoronavirus PEDV) (PEDV)
# [2] = molecular target: mPDCoV-N (P61A/P292A) (porcine deltacoronavirus (PDCoV))
# [3] = molecular target: wPDCoV-N (His-fused PDCoV N protein) (porcine deltacoronavirus (PDCoV))
substance,measurement,setting,value
Grb2-GST (pGEX-Grb2) (from UniProt B6E241 1-217) (natural protein),binding ratio,[1],23.5%
same,binding ratio,[2],19.7%
same,binding ratio,[3],31.6%

# Source: article PMC12453405
